Reference: patent publication US11504441B2, “Radiolabeled compounds targeting the prostate-specific membrane antigen” (PROVINCIAL HEALTH SERVICES AUTHORITY, priority 2019, dated 2022)

Assay: in vivo
Design: species or system mice
Settings: male, NODSCID 1L2RγKO, mouse, iv, total radioactivity

COc1ccc(CCCC(=O)NCC(=O)N[C@@H](CCCCNC(=O)CN2CCN(CC(=O)O)CCN(CC(=O)O)CCN(CC(=O)O)CC2)C(=O)NC[C@H]2CC[C@H](C(=O)N[C@@H](Cc3c4ccccc4cc4ccccc34)C(=O)NCCCC[C@H](NC(=O)N[C@@H](CCCC(=O)O)C(=O)O)C(=O)O)CC2)cc1 [177Lu-HTK03170, metal not drawn]
tissue uptake at 1 h (Adrenal glands uptake): 3.34 ± 0.45 %ID/g
tissue uptake at 4 h (Adrenal glands uptake): 1.78 ± 0.45 %ID/g
tissue uptake at 24 h (Adrenal glands uptake): 0.5 ± 0.16 %ID/g
tissue uptake at 72 h (Adrenal glands uptake): 0.27 ± 0.11 %ID/g
tissue uptake at 120 h (Adrenal glands uptake): 0.22 ± 0.18 %ID/g
tissue uptake at 1 h (Blood uptake): 16.9 ± 1.97 %ID/g
tissue uptake at 4 h (Blood uptake): 8.34 ± 1.67 %ID/g
tissue uptake at 24 h (Blood uptake): 0.59 ± 0.13 %ID/g
tissue uptake at 72 h (Blood uptake): 0.06 ± 0.02 %ID/g
tissue uptake at 120 h (Blood uptake): 0.02 ± 0.01 %ID/g
tissue uptake at 1 h (Bone uptake): 0.89 ± 0.27 %ID/g
tissue uptake at 4 h (Bone uptake): 0.45 ± 0.13 %ID/g
tissue uptake at 24 h (Bone uptake): 0.06 ± 0.04 %ID/g
tissue uptake at 72 h (Bone uptake): 0.03 ± 0.02 %ID/g
tissue uptake at 120 h (Bone uptake): 0.02 ± 0.01 %ID/g
tissue uptake at 1 h (Brain uptake): 0.23 ± 0.04 %ID/g
tissue uptake at 4 h (Brain uptake): 0.13 ± 0.03 %ID/g
tissue uptake at 24 h (Brain uptake): 0.02 ± 0.01 %ID/g
tissue uptake at 72 h (Brain uptake): 0.01 %ID/g
tissue uptake at 1 h (Fat uptake): 1.38 ± 0.45 %ID/g
tissue uptake at 4 h (Fat uptake): 0.6 ± 0.13 %ID/g
tissue uptake at 24 h (Fat uptake): 0.12 ± 0.04 %ID/g
tissue uptake at 72 h (Fat uptake): 0.04 ± 0.02 %ID/g
tissue uptake at 120 h (Fat uptake): 0.03 ± 0.03 %ID/g
tissue uptake at 1 h (Heart uptake): 3.6 ± 0.52 %ID/g
tissue uptake at 4 h (Heart uptake): 1.91 ± 0.4 %ID/g
tissue uptake at 24 h (Heart uptake): 0.26 ± 0.04 %ID/g
tissue uptake at 72 h (Heart uptake): 0.09 ± 0.03 %ID/g
tissue uptake at 120 h (Heart uptake): 0.04 ± 0.02 %ID/g
tissue uptake at 1 h (Intestine uptake): 1.19 ± 0.25 %ID/g
tissue uptake at 4 h (Intestine uptake): 0.61 ± 0.17 %ID/g
tissue uptake at 24 h (Intestine uptake): 0.18 ± 0.07 %ID/g
tissue uptake at 72 h (Intestine uptake): 0.14 ± 0.11 %ID/g
tissue uptake at 120 h (Intestine uptake): 0.04 ± 0.03 %ID/g
tissue uptake at 1 h (Kidneys uptake): 13.2 ± 1.87 %ID/g
tissue uptake at 4 h (Kidneys uptake): 9.23 ± 2.18 %ID/g
tissue uptake at 24 h (Kidneys uptake): 5.8 ± 1.24 %ID/g
tissue uptake at 72 h (Kidneys uptake): 2.56 ± 0.62 %ID/g
tissue uptake at 120 h (Kidneys uptake): 1.3 ± 0.55 %ID/g
tissue uptake at 1 h (Lacrimal uptake): 0.27 ± 0.08 %ID/g
tissue uptake at 4 h (Lacrimal uptake): 0.15 ± 0.07 %ID/g
tissue uptake at 24 h (Lacrimal uptake): 0.04 ± 0.03 %ID/g
tissue uptake at 72 h (Lacrimal uptake): 0.01 ± 0.01 %ID/g
tissue uptake at 1 h (Liver uptake): 2.67 ± 0.37 %ID/g
tissue uptake at 4 h (Liver uptake): 1.89 ± 0.69 %ID/g
tissue uptake at 24 h (Liver uptake): 0.69 ± 0.27 %ID/g
tissue uptake at 72 h (Liver uptake): 0.36 ± 0.13 %ID/g
tissue uptake at 120 h (Liver uptake): 0.23 ± 0.13 %ID/g
tissue uptake at 1 h (Lungs uptake): 8.06 ± 1.48 %ID/g
tissue uptake at 4 h (Lungs uptake): 4.35 ± 0.82 %ID/g
tissue uptake at 24 h (Lungs uptake): 0.72 ± 0.19 %ID/g
tissue uptake at 72 h (Lungs uptake): 0.18 ± 0.04 %ID/g
tissue uptake at 120 h (Lungs uptake): 0.06 ± 0.03 %ID/g
tissue uptake at 1 h (Muscle uptake): 1.15 ± 0.19 %ID/g
tissue uptake at 4 h (Muscle uptake): 0.58 ± 0.13 %ID/g
tissue uptake at 24 h (Muscle uptake): 0.08 ± 0.02 %ID/g
tissue uptake at 72 h (Muscle uptake): 0.02 ± 0.01 %ID/g
tissue uptake at 120 h (Muscle uptake): 0.01 ± 0.01 %ID/g
tissue uptake at 1 h (Pancreas uptake): 1.41 ± 0.31 %ID/g
tissue uptake at 4 h (Pancreas uptake): 0.74 ± 0.18 %ID/g
tissue uptake at 24 h (Pancreas uptake): 0.12 ± 0.03 %ID/g
tissue uptake at 72 h (Pancreas uptake): 0.04 ± 0.01 %ID/g
tissue uptake at 120 h (Pancreas uptake): 0.02 ± 0.02 %ID/g
tissue uptake at 1 h (Salivary uptake): 2.43 ± 0.33 %ID/g
tissue uptake at 4 h (Salivary uptake): 1.31 ± 0.3 %ID/g
tissue uptake at 24 h (Salivary uptake): 0.28 ± 0.04 %ID/g
tissue uptake at 72 h (Salivary uptake): 0.11 ± 0.03 %ID/g
tissue uptake at 120 h (Salivary uptake): 0.05 ± 0.04 %ID/g
tissue uptake at 1 h (Seminal uptake): 1.22 ± 0.4 %ID/g
tissue uptake at 4 h (Seminal uptake): 0.49 ± 0.1 %ID/g
tissue uptake at 24 h (Seminal uptake): 0.08 ± 0.02 %ID/g
tissue uptake at 72 h (Seminal uptake): 0.04 ± 0.01 %ID/g
tissue uptake at 120 h (Seminal uptake): 0.02 ± 0.01 %ID/g
tissue uptake at 1 h (Spleen uptake): 1.64 ± 0.83 %ID/g
tissue uptake at 4 h (Spleen uptake): 0.96 ± 0.29 %ID/g
tissue uptake at 24 h (Spleen uptake): 0.45 ± 0.1 %ID/g
tissue uptake at 72 h (Spleen uptake): 0.38 ± 0.15 %ID/g
tissue uptake at 120 h (Spleen uptake): 0.49 ± 0.38 %ID/g
tissue uptake at 1 h (Stomach uptake): 0.59 ± 0.12 %ID/g
tissue uptake at 4 h (Stomach uptake): 0.42 ± 0.15 %ID/g
tissue uptake at 24 h (Stomach uptake): 0.25 ± 0.13 %ID/g
tissue uptake at 72 h (Stomach uptake): 0.28 ± 0.33 %ID/g
tissue uptake at 120 h (Stomach uptake): 0.05 ± 0.08 %ID/g
tissue uptake at 1 h (Tail uptake): 6.11 ± 3.05 %ID/g
tissue uptake at 4 h (Tail uptake): 2.66 ± 0.9 %ID/g
tissue uptake at 24 h (Tail uptake): 0.31 ± 0.06 %ID/g
tissue uptake at 72 h (Tail uptake): 0.19 ± 0.12 %ID/g
tissue uptake at 120 h (Tail uptake): 0.08 ± 0.06 %ID/g
tissue uptake at 1 h (Testes uptake): 2.17 ± 0.32 %ID/g
tissue uptake at 4 h (Testes uptake): 1.83 ± 0.58 %ID/g
tissue uptake at 24 h (Testes uptake): 0.64 ± 0.53 %ID/g
tissue uptake at 72 h (Testes uptake): 0.24 ± 0.04 %ID/g
tissue uptake at 120 h (Testes uptake): 0.14 ± 0.06 %ID/g
tissue uptake at 1 h (Thyroid uptake): 2.9 ± 0.41 %ID/g
tissue uptake at 4 h (Thyroid uptake): 1.62 ± 0.42 %ID/g
tissue uptake at 24 h (Thyroid uptake): 0.37 ± 0.06 %ID/g
tissue uptake at 72 h (Thyroid uptake): 0.15 ± 0.01 %ID/g
tissue uptake at 120 h (Thyroid uptake): 0.08 ± 0.05 %ID/g
tissue uptake at 1 h (Tumor uptake): 27.2 ± 7.55 %ID/g
tissue uptake at 4 h (Tumor uptake): 47.6 ± 13.5 %ID/g
tissue uptake at 24 h (Tumor uptake): 57.2 ± 15.3 %ID/g
tissue uptake at 72 h (Tumor uptake): 59.3 ± 16 %ID/g
tissue uptake at 120 h (Tumor uptake): 61.9 ± 22.3 %ID/g
